Test results published in US20220380463A1 (Adimab, published 2022).
Changes are numbered by the printed parent chain.

B1: SAD10318_P03_A09 (ADI-48608) (antibody, V domains shown)
VH: QVQLVQSGAEVKKPGASVKVSCKASGFNIKDYYMHWVRQAPGQRLEWMGWIDLENANTIYDAKFQGRVTITRDTSASTAYMELSSLRSEDTAVYYCARDHYGRYFYDHWGQGTLVTVSS
VL: DIVMTQSPDSLAVSLGERATINCKSSQSLLNARTGHNHLAWYQQKPGQPPKLLIYWASTRESGVPDRFSGSGSGTDFTLTISSLQAEDVAVYYCKQSYHHRTFGGGTKVEIK
notes: IgG; also called Ab203
B2: SAD10319_P01_D01 (ADI-48622) (antibody, V domains shown)
VH: QVQLVQSGAEVKKPGASVKVSCKASGYTFKSYDMHWVRQAPGQRLEWMGWIDAGTGNTKYSQKFQGRVTITRDTSASTAYMELSSLRSEDTAVYYCARDAYGRYFYDVWGQGTLVTVSS
VL: B1 VL with H36K, H38Y, H99S, H100R
notes: IgG; also called Ab231
B3: SAD10320_P02_C04 (ADI-48648) (antibody, V domains shown)
VH: B1 VH with H100A, H108V
VL: B1 VL with H36K, H38Y, Y98H, H99T, H100R
notes: IgG; also called Ab71
B4: SAD10318_P03_D08 (ADI-48604) (antibody, V domains shown)
VH: B1 VH with S75A, G102H
VL: B1 VL with R33H, H36K, H99S, H100R
notes: IgG; also called Ab198
B5: SAD10318_P04_D11 (ADI-48616) (antibody, V domains shown)
VH: B1 VH with H100A, R103H, H108V
VL: B1 VL with K95H, H99S
notes: IgG; also called Ab219
B6: SAD10318_P04_H11 (ADI-48617) (antibody, V domains shown)
VH: B1 VH
VL: B1 VL with S7Y, R33H, H38Y, K95H, H99S
notes: IgG; also called Ab223
B7: SAD10320_P01_D01 (ADI-48644) (antibody, V domains shown)
VH: B1 VH with H100A, R103H, Y104G, H108V
VL: B1 VL with H36K, H38Y, H99S
notes: IgG; also called Ab48
B8: SAD10320_P01_B01 (ADI-48643) (antibody, V domains shown)
VH: B1 VH with H100A, R103H, Y104I, H108V
VL: B1 VL with H36K, H38Y, H99V
notes: IgG; also called Ab46
B9: SAD10318_P03_E07 (ADI-48601) (antibody, V domains shown)
VH: B1 VH with G102H, H108V
VL: B1 VL with R33H, H36K, H38Y, K95H, Y98H, H99S, H100R
notes: IgG; also called Ab191
B10: SAD10318_P04_B11 (ADI-48614) (antibody, V domains shown)
VH: B1 VH with G102H, H108V
VL: B1 VL with R33H, H36K, H99S, H100R
notes: IgG; also called Ab217
B11: SAD10318_P03_C08 (ADI-48603) (antibody, V domains shown)
VH: B1 VH with R103H, H108V
VL: B1 VL with N31H, H36K, Y98H, H99S
notes: IgG; also called Ab197
B12: SAD10318_P03_F08 (ADI-48606) (antibody, V domains shown)
VH: B1 VH with G102H, H108V
VL: B1 VL with R33H, H36K, H99S, H100R, T102H
notes: IgG; also called Ab200
B13: SAD10320_P02_B06 (ADI-48653) (antibody, V domains shown)
VH: B1 VH with H100A, R103H, Y104W, H108V
VL: B1 VL with H36K, H38Y
notes: IgG; also called Ab83
B14: SAD10318_P04_D10 (ADI-48613) (antibody, V domains shown)
VH: B1 VH with H100A, R103H, F105H, H108V
VL: B1 VL with N31H, H36K, H99S, H100R
notes: IgG; also called Ab211
B15: SAD10318_P04_C11 (ADI-48615) (antibody, V domains shown)
VH: B1 VH with Y101H, H108V
VL: B1 VL with H99S, H100R
notes: IgG; also called Ab218
B16: SAD10320_P01_E01 (ADI-48645) (antibody, V domains shown)
VH: B1 VH with H100A, R103H, Y104V, H108V
VL: B1 VL with H36K, H38Y, H99K
notes: IgG; also called Ab49
B17: SAD10318_P04_C10 (ADI-48612) (antibody, V domains shown)
VH: B1 VH with H100A, F105H, Y106H, H108V
VL: B1 VL with K95H, H100R
notes: IgG; also called Ab210
B18: SAD10318_P03_E08 (ADI-48605) (antibody, V domains shown)
VH: B1 VH with G102H, H108V
VL: B1 VL with R33H, H36K, H100R, T102H
notes: IgG; also called Ab199
B19: SAD10318_P03_H08 (ADI-48607) (antibody, V domains shown)
VH: B1 VH with H100A, G102H, R103H, H108V
VL: B1 VL with K95H, Y98H, H99S, H100R
notes: IgG; also called Ab202
B20: SAD10320_P01_A02 (ADI-48646) (antibody, V domains shown)
VH: B1 VH with H100A, G102P, R103H, H108V
VL: B1 VL with H36K, H38Y, H100E
notes: IgG; also called Ab53
B21: SAD10318_P04_A12 (ADI-48618) (antibody, V domains shown)
VH: B1 VH with H100A, G102H, Y104H, H108V
VL: B1 VL with N31H, A32P, H36K, H38Y
notes: IgG; also called Ab224
B22: SAD10318_P03_F07 (ADI-48602) (antibody, V domains shown)
VH: B1 VH with H100A, Y101H, F105H, H108V
VL: B1 VL with S10C, H38Y, Y98H, H99S
notes: IgG; also called Ab192
B23: SAD10320_P01_F03 (ADI-48647) (antibody, V domains shown)
VH: B1 VH with H100A, G102P, R103H, H108V
VL: B1 VL with H36K, H38Y, H99L
notes: IgG; also called Ab65
B24: SAD10318_P03_C09 (ADI-48609) (antibody, V domains shown)
VH: B1 VH with H100A, G102H
VL: B1 VL with R33H, H36K
notes: IgG; also called Ab205
B25: SAD10318_P03_D09 (ADI-48610) (antibody, V domains shown)
VH: B1 VH with Y33H, H100A, Y101H, G102H, H108V
VL: B1 VL with R33H, H36K, Y98H, H99S
notes: IgG; also called Ab206

molecular target: T1, human CD3 on CD3+ Jurkat cells (human, UniProt P07766 23-207); assay: flow cytometry on CD3+ Jurkat cells, ratio of MFI at pH 6.0 to pH 7.4
T1 construct: whole, on cells; Native CD3 complex on cells; the other CD3 chains are not specified for this assay; also called Human CD3+ Jurkat
T1 sequence (P07766 23-207): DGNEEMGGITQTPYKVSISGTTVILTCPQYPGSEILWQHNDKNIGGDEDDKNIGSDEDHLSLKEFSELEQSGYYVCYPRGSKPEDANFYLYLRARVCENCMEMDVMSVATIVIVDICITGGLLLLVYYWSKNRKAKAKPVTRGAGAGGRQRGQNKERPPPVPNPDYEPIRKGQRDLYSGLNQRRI
Protocol: (§1) Specificity of the anti-CD3 antibodies for human CD3+ Jurkat cells compared to CHO-S cells at pH 6.0 and 7.4 was determined using a FACS cell binding assay. Briefly, CD3+ human Jurkat cells and CHO-S cells were thawed and washed with cold PBSF buffer, pH 7.4 (PBS+0.1% BSA, pH 7.4). About 200,000 cells were aliquoted per well of a 96-well plate and pelleted by centrifugation (5 minutes at 500×g). The cells were washed with either PBSF pH 7.4 or PBSF pH 6.0 (PBS+0.1% BSA, pH 6.0), and then resuspended in 100 ul in either PBSF pH 7.4 or PBSF pH 6.0 with IgG antibody produced in yeast (100 nM). The mixture (cells+antibody) was incubated for 20 minutes on ice, then washed twice with either PBSF pH 7.4 or PBSF pH 6.0. Cells were resuspended in 50 ul of propidium iodide (1:500 dilution) and anti-human IgG-RPE (1:100 dilution) prepared in either PBSF pH 7.4 or PBSF pH 6.0, then incubated for 20 minutes on ice in the dark before cells were washed twice with either PBSF pH 7.4 or PBSF pH 6.0. Binding was analyzed on FACS Canto II.
(§2) Cell binding assays. CD3+ human Jurkat cells (ATCC) and CHO-S cells (Invitrogen/ThermoFisher) were thawed and washed with cold PBSF buffer, pH 7.4 (PBS+0.1% BSA, pH 7.4). About 200,000 cells were aliquoted per well of a 96-well plate (FACS Assay Plate VWR BD 353263) and pelleted by centrifugation (5 minutes at 500×g). The cells were washed with either PBSF pH 7.4 or PBSF pH 6.0 (PBS+0.1% BSA, pH 6.0), and then resuspended in 100 ul in either PBSF pH 7.4 or PBSF pH 6.0 with IgG antibody (100 nM) produced in yeast as described above. The mixture (cells+antibody) was incubated for 20 minutes on ice, then washed twice with either PBSF pH 7.4 or PBSF pH 6.0. Cells were resuspended in 50 ul of propidium iodide (Roche; 1:500 dilution) and anti-human IgG-RPE (Southern Biotech; 1:100 dilution) prepared in either PBSF pH 7.4 or PBSF pH 6.0, then incubated for 20 minutes on ice in the dark before cells were washed twice with either PBSF pH 7.4 or PBSF pH 6.0. Binding was analyzed on FACS Canto II.

In order of falling “MFI pH 6.0/MFI pH 7.4” value:
1. B23  30.9
2. B20  24.1
3. B9  20.7
4. B8  15.9
5. B16  11.1
6. B24  9.3
7. B7  6.9
8. B22  5.9
9. B2  5.4
10. B18  5.2
11. B25  5
12. B4  4.7
13. B1  4.5
14. B21  4.2
15. B11  3.5
16. B6  3.1
17. B13  3
18. B10  2.6
19. B19  1.7
20. B3  1.2
21. B12  1.2
22. B15  1.1
23. B5  0.9
24. B14  0.8
25. B17  0.8

molecular target: T1, human CD3 on CD3+ Jurkat cells; assay: flow cytometry, 100 nM IgG on CD3+ Jurkat cells, pH 7.4
Protocol: as §1, §2

In order of rising “MFI pH 7.4” value:
1. B22  34 MFI
2. B15  37 MFI
3. B24  37 MFI
4. B5  41 MFI
5. B16  41 MFI
6. B21  41 MFI
7. B4  43 MFI
8. B1  45 MFI
9. B17  50 MFI
10. B11  51 MFI
11. B9  52 MFI
12. B19  52 MFI
13. B6  53 MFI
14. B20  53 MFI
15. B18  55 MFI
16. B10  58 MFI
17. B14  66 MFI
18. B25  72 MFI
19. B12  76 MFI
20. B7  124 MFI
21. B23  141 MFI
22. B8  265 MFI
23. B2  567 MFI
24. B13  1030 MFI
25. B3  5140 MFI

molecular target: T1, human CD3 on CD3+ Jurkat cells; assay: flow cytometry, 100 nM IgG on CD3+ Jurkat cells, pH 6.0
Protocol: as §1, §2

In order of falling “MFI pH 6.0” value:
1. B3  6160 MFI
2. B23  4340 MFI
3. B8  4200 MFI
4. B13  3110 MFI
5. B2  3060 MFI
6. B20  1270 MFI
7. B9  1080 MFI
8. B7  860 MFI
9. B16  450 MFI
10. B25  361 MFI
11. B24  346 MFI
12. B18  282 MFI
13. B1  203 MFI
14. B22  202 MFI
15. B4  199 MFI
16. B11  177 MFI
17. B21  170 MFI
18. B6  166 MFI
19. B10  148 MFI
20. B12  89 MFI
21. B19  86 MFI
22. B14  52 MFI
23. B17  42 MFI
24. B15  40 MFI
25. B5  36 MFI
